{"source": "patent US20140113854A1", "about": "(NATIONAL RESEARCH COUNCIL OF CANADA, published 2014)", "binders": {"B1": {"name": "MH2 (peptide)", "peptide": "IRFTDGEGTPNPESHNNGDFEEIPEEYLQ", "modifications": "ends and bridges not checked; also: uniformly 15N-labelled", "notes": "Linker HV2(42-53); Uniformly 15N-labelled for the NMR work; also called mini-hirudin 2"}, "B2": {"name": "TWE1 (peptide)", "peptide 1": "{Benzenesulfonyl(4-tBu)}-R[dPip]GC", "peptide 2": "CGSGSGSGSGSGSGSGSGDFEEIPEEYLQ", "modifications": "disulfide I:4-II:1; ends not checked; also: uniformly 15N-labelled", "notes": "Analog of BTI1 in which the two parts are joined by a disulfide bond"}, "B3": {"name": "BTI2 (peptide)", "peptide": "XRXGEWTYDDATKTFTVTEGDFEEIPEEYLQ", "modifications": "N-terminal Bbs (4-tert-butyl-benzenesulfonyl) on Arg; D-pipecolic acid (D-Pip) after Arg", "notes": "gb1 linker"}, "B4": {"name": "BTI4 (peptide)", "peptide": "B3 peptide with V17W", "modifications": "N-terminal Bbs (4-tert-butyl-benzenesulfonyl) on Arg; D-pipecolic acid (D-Pip) after Arg"}, "B5": {"name": "BRI-T109 (peptide)", "peptide": "PRFTDGEWTWDDATKTWTWTEGDFEEIPEEYLQ", "notes": "MH2-wZIP4 with the first residue Ile replaced by Pro; also called P4230"}}, "key": {"[1]": {"biological_target": "T1, Human α-thrombin (human, UniProt P00734 328-363; P00734 364-622)", "assay": "cell-based or functional assay"}, "[2]": {"biological_target": "T1, Human α-thrombin", "assay": "cell-based or functional assay", "remark": "listed apart in the source"}, "[3]": {"biological_target": "T1, Human α-thrombin", "assay": "cell-based or functional assay", "remark": "listed apart in the source"}, "[4]": {"biological_target": "T1, Human α-thrombin", "assay": "cell-based or functional assay", "remark": "listed apart in the source"}, "[5]": {"biological_target": "T1, Human α-thrombin", "assay": "inhibition of thrombin-catalysed hydrolysis of chromogenic substrate S-2366, 37 °C", "text": "(§1) Human α-thrombin was purchased from Haemotologic Technologies, Inc., VT, USA."}, "[6]": {"biological_target": "T1, Human α-thrombin", "assay": "inhibition of thrombin-catalysed hydrolysis of chromogenic substrate S-2366, 25 °C", "text": "as §1"}, "[7]": {"biological_target": "T1, Human α-thrombin", "assay": "inhibition of human α-thrombin"}, "[8]": {"biological_target": "T1, Human α-thrombin", "assay": "derived from Ki and punfold (KD = Ki x popen), S-2366 kinetics, 37 °C", "text": "as §1"}, "[9]": {"biological_target": "T1, Human α-thrombin", "assay": "enzyme kinetics, thrombin-catalysed chromogenic substrate hydrolysis, 37 °C"}, "[10]": {"biological_target": "T2, rat-tail collagen type I (rat, UniProt P02454 152-1207; P02466 86-1125)", "T2 construct": "Used in solution and as randomly deposited or partially aligned hydrogel; Human collagen gels were also prepared; also called collagen hydrogel; rat collagen", "T2 sequence (P02454 152-1207 limits assumed, chain 1 of 2)": "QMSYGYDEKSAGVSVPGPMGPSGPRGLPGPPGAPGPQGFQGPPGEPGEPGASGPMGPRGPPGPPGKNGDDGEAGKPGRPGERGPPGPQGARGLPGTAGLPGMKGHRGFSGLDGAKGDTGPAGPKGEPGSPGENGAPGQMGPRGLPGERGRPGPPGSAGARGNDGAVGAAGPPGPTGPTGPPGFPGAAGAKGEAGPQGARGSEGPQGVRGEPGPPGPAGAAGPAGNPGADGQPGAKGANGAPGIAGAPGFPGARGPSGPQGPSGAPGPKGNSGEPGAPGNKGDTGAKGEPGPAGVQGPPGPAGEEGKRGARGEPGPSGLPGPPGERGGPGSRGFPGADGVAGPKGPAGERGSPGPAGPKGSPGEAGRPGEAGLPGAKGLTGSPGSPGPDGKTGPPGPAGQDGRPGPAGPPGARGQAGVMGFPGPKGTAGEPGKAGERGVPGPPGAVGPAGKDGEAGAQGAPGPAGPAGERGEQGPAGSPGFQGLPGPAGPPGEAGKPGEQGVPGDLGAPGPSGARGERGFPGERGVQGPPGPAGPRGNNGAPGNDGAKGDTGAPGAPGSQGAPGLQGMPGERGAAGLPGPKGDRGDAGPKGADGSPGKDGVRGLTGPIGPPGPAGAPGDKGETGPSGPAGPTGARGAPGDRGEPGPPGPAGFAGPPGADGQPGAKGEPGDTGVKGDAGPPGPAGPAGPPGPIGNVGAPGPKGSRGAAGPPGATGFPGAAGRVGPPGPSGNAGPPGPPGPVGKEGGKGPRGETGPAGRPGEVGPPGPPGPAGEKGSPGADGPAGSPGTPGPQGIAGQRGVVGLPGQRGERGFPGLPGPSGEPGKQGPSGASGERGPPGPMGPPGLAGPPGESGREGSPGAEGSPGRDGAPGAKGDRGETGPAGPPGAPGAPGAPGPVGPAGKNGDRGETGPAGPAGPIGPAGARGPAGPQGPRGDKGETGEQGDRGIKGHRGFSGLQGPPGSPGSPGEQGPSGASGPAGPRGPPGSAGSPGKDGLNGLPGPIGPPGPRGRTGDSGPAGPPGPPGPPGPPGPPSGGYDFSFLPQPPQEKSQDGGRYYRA", "T2 sequence (P02466 86-1125 limits assumed, chain 2 of 2)": "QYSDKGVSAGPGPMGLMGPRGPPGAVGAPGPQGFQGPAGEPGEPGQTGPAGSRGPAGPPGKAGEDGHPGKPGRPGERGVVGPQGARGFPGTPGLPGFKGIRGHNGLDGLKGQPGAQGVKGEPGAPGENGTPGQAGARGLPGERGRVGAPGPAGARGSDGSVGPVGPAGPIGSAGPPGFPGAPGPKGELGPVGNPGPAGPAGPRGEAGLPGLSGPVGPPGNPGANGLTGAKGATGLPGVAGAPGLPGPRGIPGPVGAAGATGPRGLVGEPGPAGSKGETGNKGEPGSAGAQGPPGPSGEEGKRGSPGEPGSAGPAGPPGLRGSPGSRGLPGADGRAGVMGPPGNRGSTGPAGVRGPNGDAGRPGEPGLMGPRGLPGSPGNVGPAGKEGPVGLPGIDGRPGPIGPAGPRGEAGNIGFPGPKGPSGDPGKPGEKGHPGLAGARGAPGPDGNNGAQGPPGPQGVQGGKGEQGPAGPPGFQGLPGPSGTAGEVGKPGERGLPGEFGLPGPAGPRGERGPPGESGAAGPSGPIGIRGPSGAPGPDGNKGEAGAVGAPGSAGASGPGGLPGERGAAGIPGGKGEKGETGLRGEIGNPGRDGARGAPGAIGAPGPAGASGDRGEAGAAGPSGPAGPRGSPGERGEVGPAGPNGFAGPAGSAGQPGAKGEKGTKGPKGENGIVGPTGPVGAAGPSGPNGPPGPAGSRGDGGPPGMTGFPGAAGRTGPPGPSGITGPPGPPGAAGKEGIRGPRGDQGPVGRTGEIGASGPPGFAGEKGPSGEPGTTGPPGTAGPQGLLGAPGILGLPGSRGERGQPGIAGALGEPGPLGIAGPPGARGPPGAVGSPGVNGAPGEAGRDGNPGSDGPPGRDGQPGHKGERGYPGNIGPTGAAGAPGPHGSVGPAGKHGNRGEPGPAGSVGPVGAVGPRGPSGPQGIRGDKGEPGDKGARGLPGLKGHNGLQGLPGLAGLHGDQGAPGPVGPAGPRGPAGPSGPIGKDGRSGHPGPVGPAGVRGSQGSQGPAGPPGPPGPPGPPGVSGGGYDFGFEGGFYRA", "assay": "NMR in collagen hydrogel"}, "[11]": {"biological_target": "T1, Human α-thrombin", "assay": "inhibition of thrombin-catalysed hydrolysis of chromogenic substrate S-2366, 37 °C", "remark": "listed apart in the source"}, "[12]": {"biological_target": "T1, Human α-thrombin", "assay": "thrombin inhibition, 37 °C"}, "[13]": {"biological_target": "T1, Human α-thrombin", "assay": "enzyme kinetics, thrombin-catalysed chromogenic substrate hydrolysis, 37 °C, 50 s window"}, "[14]": {"biological_target": "T2, rat-tail collagen type I", "assay": "deuterium NMR of collagen gel formed with the peptide; called a semi-quantitative indication of peptide-collagen binding"}, "[15]": {"biological_target": "T2, rat-tail collagen type I", "assay": "proton NMR and deuterium coupling constant of collagen gel"}, "[16]": {"biological_target": "T1, Human α-thrombin", "assay": "inhibition of thrombin by monovalent active-site moiety; conditions not given at the table"}}, "note": "Substitutions are numbered along the chain they refer to. Positions of bridges follow the written chain, without caps; N, C: chain ends. Non-standard residues stand in square brackets, D forms with d. Chains are numbered I, II in the order given. No end group written: not given here. *: point of attachment. Benzenesulfonyl(4-tBu) = CC(C)(C)c1ccc(S(=O)(=O)*)cc1; dPip = O=C(O)[C@H]1CCCCN1"}
{"binder": "VRFTDGEGTPKPQSHDNGDFEEIPEEYLQ (ends and bridges not checked)", "note": "[MH1]", "values": [{"measurement": "IC50 (assay not given)", "setting": "[1]", "result": "~33", "unit": "nM"}]}
{"binder": "IRFTDGEWTWDDATKTWTWTEGDFEEIPEEYLQ (ends and bridges not checked; also: 15N-labelled)", "note": "[MH2-wZIP4]", "values": [{"measurement": "KI (Thrombin Inhibition); IC50 by the clotting assay, 37 °C", "setting": "[2]", "result": 154, "unit": "nM"}, {"measurement": "IC50, fibrinogen clotting assay, 25 °C", "setting": "[3]", "result": 245, "unit": "nM"}, {"measurement": "IC50, fibrinogen clotting assay, 37 °C", "setting": "[3]", "result": 154, "unit": "nM"}, {"measurement": "IC50, fibrinogen clotting assay, 42 °C", "setting": "[3]", "result": 148, "unit": "nM"}, {"measurement": "IC50, T = 37° C.", "setting": "[4]", "result": 154, "unit": "nM"}]}
{"binder": "IRFTDGEWTYDDATKTFTWTEGDFEEIPEEYLQ", "note": "[MH2-wZIP5]", "values": [{"measurement": "KI (Thrombin Inhibition); IC50 by the clotting assay, 37 °C", "setting": "[2]", "result": 107, "unit": "nM"}, {"measurement": "IC50, fibrinogen clotting assay, 25 °C", "setting": "[3]", "result": 80, "unit": "nM"}, {"measurement": "IC50, fibrinogen clotting assay, 37 °C", "setting": "[3]", "result": 107, "unit": "nM"}]}
{"binder": "IRFTDGEWTWDDATKTWTVTEGDFEEIPEEYLQ", "note": "[MH2-wZIP6]", "values": [{"measurement": "KI (Thrombin Inhibition); IC50 by the clotting assay, 37 °C", "setting": "[2]", "result": 53, "unit": "nM"}, {"measurement": "IC50, fibrinogen clotting assay, 25 °C", "setting": "[3]", "result": 47, "unit": "nM"}, {"measurement": "IC50, fibrinogen clotting assay, 37 °C", "setting": "[3]", "result": 53, "unit": "nM"}]}
{"binder": "B1", "values": [{"measurement": "Ki", "setting": "[5]", "result": 67, "unit": "nM"}, {"measurement": "IC50 (assay not given)", "setting": "[1]", "result": "~14", "unit": "nM"}, {"measurement": "IC50, T = 37° C.", "setting": "[4]", "result": 14, "unit": "nM"}, {"measurement": "Ki", "setting": "[6]", "result": 34, "unit": "nM"}]}
{"binder": "IRFTDGEWTYDDATKTFTVTEGDFEEIPEEYLQ (ends and bridges not checked)", "note": "[MH2-gb1]", "values": [{"measurement": "IC50, fibrinogen clotting assay, 25 °C", "setting": "[3]", "result": 49, "unit": "nM"}, {"measurement": "IC50, fibrinogen clotting assay, 37 °C", "setting": "[3]", "result": 86, "unit": "nM"}]}
{"binder": "B2", "values": [{"measurement": "Ki", "setting": "[7]", "result": 2.2, "unit": "nM"}]}
{"binder": "B3", "values": [{"measurement": "Kd", "setting": "[8]", "result": 2.8, "unit": "nM"}]}
{"binder": "B4", "values": [{"measurement": "Kd", "setting": "[8]", "result": 2.8, "unit": "nM"}]}
{"binder": "IRFTDGSGSGSGSGSGSGDFEEIPEEYLQ (ends and bridges not checked, (GS)6 linker)", "note": "[MH2-allGS]", "values": [{"measurement": "Ki", "setting": "[5]", "result": 50, "unit": "nM"}, {"measurement": "Ki", "setting": "[9]", "result": 58, "unit": "nM"}, {"measurement": "Ki", "setting": "[6]", "result": 30, "unit": "nM"}]}
{"binder": "IRFTDGEGTGSGSGSGSGDFEEIPEEYLQ (ends and bridges not checked, GEGT(GS)4 linker; comparative control)", "note": "[MH2-GS]", "values": [{"measurement": "Ki", "setting": "[5]", "result": 59, "unit": "nM"}, {"measurement": "binding result", "setting": "[10]", "result": "no binding"}, {"measurement": "Ki", "setting": "[11]", "result": 60, "unit": "nM"}, {"measurement": "Ki", "setting": "[6]", "result": 27, "unit": "nM"}]}
{"binder": "B5", "values": [{"measurement": "Ki", "setting": "[9]", "result": 1450, "unit": "nM"}]}
{"binder": "FQPRPRFTDGEWTWDDATKTWTWTEGDFEEIPEEYL (also called P4223)", "note": "[BRI-T207]", "values": [{"measurement": "Ki", "setting": "[9]", "result": 404, "unit": "nM"}]}
{"binder": "WDPRIRFTDGEWTWDDATKTWTWTEGDFEEIPEEYL", "note": "[BRI-T219]", "values": [{"measurement": "Ki", "setting": "[9]", "result": 164, "unit": "nM"}]}
{"binder": "[dF]PRPRFTDGEWTWDDATKTWTWTEGDFEEIPEEYL (ends and bridges not checked, also called P4229)", "note": "[BRI-T208]", "values": [{"measurement": "fold reduction of Ki as compared to BRI-T207", "setting": "[12]", "result": "~13", "unit": "fold"}, {"measurement": "fold reduction of Ki as compared to MH2-wZIP4", "setting": "[12]", "result": "~5", "unit": "fold"}, {"measurement": "Ki", "setting": "[9]", "result": 28, "unit": "nM"}]}
{"binder": "[dF]PRIRFTDGEWTWDDATKTWTWTEGDFEEIPEEYL (ends and bridges not checked, also called P4238)", "note": "[BRI-T218]", "values": [{"measurement": "Ki", "setting": "[13]", "result": 14, "unit": "nM"}]}
{"binder": "IRFTDGGSWTWEGNKWTWKGGDFEEIPEEYLQ (also called P4268)", "note": "[MH2-wZIP1-2G]", "values": [{"measurement": "Ki", "setting": "[9]", "result": 16.6, "unit": "nM"}]}
{"binder": "IRFTDGSWTWEGNKWTWKGDFEEIPEEYLQ (also called P4269)", "note": "[MH2-wZIP1]", "values": [{"measurement": "Ki", "setting": "[9]", "result": 18.4, "unit": "nM"}]}
{"binder": "GEWTWDDATKTWTWTE-NH2 (Isolated linker peptide)", "note": "[trpzip4-NH2]", "values": [{"measurement": "reduction of the deuterium coupling constant (collagen fibril alignment)", "setting": "[14]", "result": "> 1", "unit": "Hz"}]}
{"binder": "GEWTWDDATKTWTVTE-NH2 (Isolated linker peptide)", "note": "[trpzip6-NH2]", "values": [{"measurement": "reduction of the deuterium coupling constant (collagen fibril alignment)", "setting": "[14]", "result": "< 0.5", "unit": "Hz"}]}
{"binder": "GEWTYDDATKTFTWTE-NH2 (Isolated linker peptide)", "note": "[trpzip5-NH2]", "values": [{"measurement": "reduction of the deuterium coupling constant (collagen fibril alignment)", "setting": "[14]", "result": "< 0.5", "unit": "Hz"}]}
{"binder": "GEWTYDDATKTFTVTE-NH2 (Isolated linker peptide)", "note": "[gb1-NH2]", "values": [{"measurement": "binding result", "setting": "[15]", "result": "no binding"}]}
{"binder": "IRFTDG (Monovalent active-site moiety)", "values": [{"measurement": "Ki", "setting": "[16]", "result": 7000, "unit": "nM"}]}
